We go through 4 substances from patent US20100028995A1, “Tetranectin Trimerizing Polypeptides” (Anaphore, Inc., priority 2004, published 2010).

What is called AUC is the area under the concentration-time curve, a measure of exposure.

Data set [1] in a line: Pharmacokinetic analysis of trimeric IL1Ra proteins in male Lewis rats after i.v. injection (plasma ELISA). It is filed as in vivo. The conditions noted are these: for AUC / AUC protein/AUC KINERET ® / Half life / Half life protein/Half life KINERET ® / relative increase in AUC compared to KINERET: rat, in vivo, iv, 100 mg/kg; for half life after i.v. injection: single i.v. dose 100 mg/kg. How it is done:
The pharmacokinetic profile of these three constructs polypeptides were analysed in Lewis rats after intravenous (i.v.) injections. The profiles obtained were compared to the pharmacokinetic profile of KINERET® in the same experiment. The pharmacokinetic study was conducted using four male Lewis rats per group, and the constructs that were used were FL IL-1Ra, I10 IL-1Ra, V17 IL-1Ra and KINERET®, Single i.v. doses of 100 mg/kg were given to the animals. The test compound was dissolved in vehicle (4.4 mM NaCitrate, pH 6.5, 93.8 mM NaCl, 0.33 mM EDTA, 0.7 g TWEEN®-80) and administered through the tail vein (vena sacralis media) or the hind paw vein (vena saphena).
Blood was then collected from four animals per time-point at baseline (zero hours) and 0.5, 1, 2, 4, 8, 12, 24, 48, 72 h post dosing. Blood samples of approximately 100 μl were collected from the tip of the tails in Microtainers™. Plasma was collected and transferred into polypropylene tubes. Plasma samples were then stored at <−70° C. until measurements were performed. Animals were then sacrificed by CO2 inhalation and the carcasses were discarded without pathological examination. The IL-1Ra compound levels and KINERET® levels in plasma were then determined by ELISA.
The average body weight of each rat was 250 grams. Assuming that the rat average blood volume was 16.5 mL a theoretical maximum initial concentration of the compounds of 1,500,000 ng/mL was calculated after i.v. injection. This starting level was used as starting value for the analysis. No observations of side effects or changes in animal well being were observed.
Following blood sampling at the above indicated time points, an ELISA assay was used to measure the injected protein in the blood samples. Based on these ELISA results, area under the curve (AUC) was used as a measure of drug exposure and the plasma half life were calculated using standard software.
(ELISA stands for enzyme-linked immunosorbent assay.)

Data set [2] relates to IL-1 induction of IL-8 in U937 cells. Put plainly: Inhibition of IL-1 induction of IL-8 in U937 cells. In kind it is cell-based. Particulars: based on several in vitro efficacy assays as well as Biacore assays. The procedure:
GG-TripV-IL-1ra (Trip V-IL1Ra), GG-TripK-IL-1ra (Trip K-IL1Ra), GG-TripT-IL-1ra (Trip T-IL1Ra) and CII-H6-GrB-GG-TripT-IL-1ra (Trip Q-IL1Ra) were further analysed for their ability to inhibit IL-1 induction of IL-8 in U937 cells.
Due to buffer effects in the assay, at the highest protein concentration used (100 μg/mL) IL-8 production increases instead of further decreasing. Based on several in vitro efficacy assays as well as Biacore assays, it was determined that TripT IL1Ra was the best compound based on blocking and binding efficacy as well as production yields.
Three of the trimeric IL1Ra polypeptides described in the previous examples were chosen for pharmacokinetic analysis. The differences in the constructs were in the N-terminus of the trimerization domain: full length (FL), first nine amino acids truncated (I10) and the first 16 amino acids truncated (V17). The 10 construct represents a naturally occurring deletion variant of the trimerization domain and lacks the O-glycosylation site at Thr 4. The V17 derivative represents a deletion of the first exon encoding the trimerization domain and lacks a characterized heparin binding site. This site is also partially removed in the I10 construct.
(In general: Surface plasmon resonance follows binding to a sensor surface in real time, without labels.)

In data set [3] the test system is STZ-induced diabetes. Put plainly: Streptozocin (STZ)-induced diabetes model. It is filed as in vivo, C57BL/6J male mice. The conditions noted are these: for reduction of blood glucose levels: daily i.p. dosing at both 100 and 30 mg/kg, FIG. 12. How it is done: STZ (Sigma Aldrich) was administered once daily for five successive days at 50 mg/kg i.p. to fasted C57BL/6J male mice. The mice gradually developed higher levels of blood glucose from Day 1 to Day 4. The levels rose from […] during the STZ induction period. Five days (Day 4) after the last STZ dosing, the mice were randomly distributed into 10 treatment groups each containing 10 mice in good condition. Treatment started on this day, before onset of diabetes and continued beyond the onset.
The study period was 28 days and the mice were weighed once weekly during the treatment period. Blood glucose levels were measured every other day during the study period in order to monitor development of diabetes. A droplet of whole blood was collected by tail vein bleeding and placed on an Ascensia ELITE® blood glucose test strip and analyzed with an Ascensia ELITE® blood glucose meter (Bayer). The values were recorded, and x-fold increase in any given group compared to levels at treatment initiation was calculated. Clinical symptoms were observed daily or as appropriate in groups where adverse symptoms occurred.

Data set [4] has as its system type II collagen arthritis. It is filed as in vivo, Female Lewis rats. How it is done:
Female Lewis rats with 4-day established type II collagen arthritis were treated subcutaneously (SC), daily (QD) on arthritis days 1-3 with Vehicle (10 mM phosphate buffer pH 7.4), or equimolar amounts of IL-1ra administering either monomeric IL-1ra (100 mg/kg KINERET®), or trimerized IL1ra (120 mg/kg Met-I10-TripT-IL1ra, or 120 mg/kg GG-V17-TripT-IL1ra). In order to have only one set of controls, all rats in the QD groups were dosed with the respective vehicle (10 mM phosphate buffer pH 7.4, or sodium citrate buffer pH 6.5 for KINERET®) at the 2nd and 3rd dosings to keep manipulations constant. Animals were terminated on arthritis day 4. Efficacy evaluation was based on ankle caliper measurements, expressed as area under the curve (AUC), terminal hind paw weights and body weights (Bendele et al 2000, Arthritis+Rheumatism 43:2648-2659). All animals survived to study termination. […] No vocalization occurred with any other injections.
Animals (8/group for arthritis, 4/group for normal), housed 4/cage, were anesthetized with Isoflurane and received subcutaneous/intradermal (SC/ID) injections with 300 μl of Freund's Incomplete Adjuvant (Difco, Detroit, Mich.) containing 2 mg/ml bovine type II collagen (Elastin Products, Owensville, Mo.) at the base of the tail and 2 sites on the back on days 0 and 6. Dosing by subcutaneous route (QD at 24 hour intervals) was initiated on arthritis day 1 and continued through day 3.
Rats were weighed on days 0-4 of arthritis, and caliper measurements of ankles were taken every day beginning on day 0 of arthritis (study day 9). After final body weight measurement, animals were euthanized, and hind paws were transected at the level of the medial and lateral malleolus and weighed (paired).

The conditions of data set [5]: in vivo; cited from earlier work.
Setting [6] is: SC QD days 1-3, 100 mg/kg KINERET, 120 mg/kg trimerized IL1ra, vs vehicle treated disease controls.

Consider “FL IL1Ra: trimeric IL1Ra polypeptide with full length (FL) trimerization domain, TripT fusion to IL-1Ra (SEQ ID NO: 24)”, for which, in data set [1], the “AUC” value amounted to 809.292 µg·h/mL, the “AUC protein/AUC KINERET ®” value worked out at 1.89, the “Half life” value is 20 min and the “Half life protein/Half life KINERET ®” value is given as 17. Moreover, the “relative increase in AUC compared to KINERET” value in data set [1] is given as “two-fold”. In addition, the “blocking and binding efficacy” value in data set [2] is listed as “best compound”.

“I10 IL1Ra: trimeric IL1Ra polypeptide, first nine amino acids of the trimerization domain truncated (I10), TripT fusion (SEQ ID NO: 28)”: in data set [1], the “AUC” value was determined as 1637.866 µg·h/mL, the “AUC protein/AUC KINERET ®” value is on record as 3.82, the “Half life” value was determined as 54 min and the “Half life protein/Half life KINERET ®” value is 45. Moreover, the “reduction of blood glucose levels” value in data set [3] is “marked reduction”. For the same substance, the “blood glucose efficacy relative to daily dosing of 100 mg/kg KINERET” value in data set [3] (twice weekly i.p. dosing of 100 mg/kg) is given as “equally effective”.

Consider “KINERET®: monomeric IL-1ra [reference compound]”, for which, in data set [1], the “AUC” value stood at 428.414 µg·h/mL, the “AUC protein/AUC KINERET ®” value was determined as 1, the “Half life” value worked out at 1.2 min and the “Half life protein/Half life KINERET ®” value was determined as 1. The “half life after i.v. injection” value in data set [1] was “about 1.2 minutes”. Also, in data set [4] (setting [6]), the “Change in body weight increased toward normal” value stood at 54%, the “Reduction of ankle diameter AUC” value is on record as 34% and the “Reduction of final paw weight” value came to 61%. Further, the “vocalization during the injection process (subcutaneous irritation)” value in data set [4] (rat, in vivo, sc) is “vocalized during the injection process”. The “half life in humans” value in data set [5] was 240 to 360 min. For the same substance, the “reduction of blood glucose levels” value in data set [3] is “marked reduction”.

For the substance “V17 IL1Ra: trimeric IL1Ra polypeptide, first 16 amino acids of the trimerization domain truncated (V17), TripT fusion (SEQ ID NO: 32)”, in data set [1], the “AUC” value came to 2177.781 µg·h/mL, the “AUC protein/AUC KINERET ®” value was determined as 5.08, the “Half life” value is 69 min and the “Half life protein/Half life KINERET ®” value is reported as 58. In addition, in data set [1], the “relative increase in AUC compared to KINERET” value is reported as “five-fold” and the “half life after i.v. injection” value is given as “about 69 minutes”.
